The data set can be described thus: self-splicing fitness, log relative to wild type (ln ratio); higher = more splicing; Tetrahymena group I intron in knt gene, E. coli kanamycin selection, DiMSum; sequences stand for … in CUCUCU…GGAGGGAAAAGUUAUCAGGCAUGCACCUGGUAGCUAGUCUUUAAACCAAUAGAUUGCAUCGGUUUAAAAGGCAAGACCGUCAAAUUGCGGGAAAGGGGUCAACAGCCGUUCAGUACCAAGUCUCAGGGGAAACUUUGAGAUGGCCUUGCAAAGGGUAUGGUAAUAAGCUGACGGACAUGGUCCUAACCACGCAGCCAAGUCCUAAGUCAACAGAUCUUCUGUUGAUAUGGAUGCAGUUCACAGACUAAAUGUCGGUCGGGGAAGAUGUAUUCUUCUCAUAAGAUAUAGUCGGACCUCUCCUUAAUGGGAGCUAGCGGAUGAAGUGAUGCAACACUGGAGCCGCUGGGAACUAAUUUGUAUGCGAAAGUAUAUUGAUUAGUUUUGGAGUACUCGUGGUCG
An outline of the steps:
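Six replicate transformations of E. coli BL21(DE3) with a pET-22b(+) library were grown overnight at 37°C or 30°C. The library randomised all eight P1ex-region intron nucleotides, the intron lying in the knt kanamycin-resistance gene, and plates were LB agar with or without 25 μg/mL kanamycin plus 100 μg/mL carbenicillin, 50 μM IPTG and 0.2% rhamnose. Pooled colonies were amplicon-sequenced on an Illumina HiSeq 2500, and fitness is the DiMSum error-weighted combination of wild-type-normalised replicate fold changes, kanamycin versus none.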

From the supplement of paper PMC7877785 come the findings set out here.

± gives the uncertainty stated by the source.

Take AUACAGCAAUAUUACGGGUU: the “self-splicing fitness (ln)” value was -1.9 ± 0.071 (30 °C) and -1.05 ± 0.077 (37 °C).

As for CGAUAGCAAUAUUACGAAGU, the “self-splicing fitness (ln)” value runs as follows: (30 °C) -2.89 ± 0.18; (37 °C) -2.58 ± 0.23.

As to GUCCAGCAAUAUUACGUUAC, the “self-splicing fitness (ln)” value is -1.55 ± 0.089 (30 °C) and -0.179 ± 0.1 (37 °C). As for GCCAAGCAAUAUUACGCCAG, the “self-splicing fitness (ln)” value (30 °C) is -3.37 ± 0.21 and the “self-splicing fitness (ln)” value (37 °C) is -2.88 ± 0.24. With CGAAAGCAAUAUUACGUAGA, the “self-splicing fitness (ln)” value reads like this: (30 °C) -2.43 ± 0.092; (37 °C) -1.49 ± 0.12. For GCGUAGCAAUAUUACGUUUC, in that order: -4.29 ± 0.34 and -1.83 ± 0.22.

As to CACUAGCAAUAUUACGUGUU, the “self-splicing fitness (ln)” value (30 °C) is -4.69 ± 0.23 and the “self-splicing fitness (ln)” value (37 °C) was -2.88 ± 0.16. For CCCAAGCAAUAUUACGUGUA, the “self-splicing fitness (ln)” value is -2.85 ± 0.096 (30 °C) and -2.3 ± 0.11 (37 °C). For AUUAAGCAAUAUUACGGAUU, in that order: -2.03 ± 0.12 and -0.791 ± 0.15. As to CAGUAGCAAUAUUACGUAGU, the “self-splicing fitness (ln)” value by setting is: (30 °C) -2.5 ± 0.13; (37 °C) -2.54 ± 0.18.

With CGGGAGCAAUAUUACGUCUG, the “self-splicing fitness (ln)” value (30 °C) was -3.61 ± 0.22 and the “self-splicing fitness (ln)” value (37 °C) is -2.03 ± 0.22.

On to GGAUAGCAAUAUUACGGUCA, for which the “self-splicing fitness (ln)” value runs as follows: (30 °C) -0.171 ± 0.081; (37 °C) -0.0595 ± 0.11.

Turning to CUACAGCAAUAUUACGGGCG, the “self-splicing fitness (ln)” value runs as follows: (30 °C) -1.2 ± 0.065; (37 °C) -0.108 ± 0.092.

With CCGUAGCAAUAUUACGCCAG, the “self-splicing fitness (ln)” value (30 °C) is -1.17 ± 0.16 and the “self-splicing fitness (ln)” value (37 °C) is -0.533 ± 0.22. For GGACAGCAAUAUUACGUGGG, in that order: -2.49 ± 0.12 and -2.28 ± 0.12. For CUCGAGCAAUAUUACGGCGG, the “self-splicing fitness (ln)” value is -1.2 ± 0.12 (30 °C) and -0.858 ± 0.2 (37 °C).

As to GGUCAGCAAUAUUACGUCGG, the “self-splicing fitness (ln)” value is -3.9 ± 0.36 (30 °C) and -0.891 ± 0.19 (37 °C). For AGCAAGCAAUAUUACGCAUU, in that order: -2.57 ± 0.17 and -1.45 ± 0.19. In the case of CACUAGCAAUAUUACGUGGA, the “self-splicing fitness (ln)” value is -3.76 ± 0.32 (30 °C) and -2.44 ± 0.14 (37 °C). As to UGAAAGCAAUAUUACGCGCC, the “self-splicing fitness (ln)” value is -0.832 ± 0.21 (30 °C) and -0.728 ± 0.23 (37 °C). For ACUCAGCAAUAUUACGCUUA, the “self-splicing fitness (ln)” value (30 °C) is -1.14 ± 0.14 and the “self-splicing fitness (ln)” value (37 °C) was -0.0124 ± 0.12. For AGAAAGCAAUAUUACGGGAU, in that order: -1.14 ± 0.14 and -1.04 ± 0.12. For AACGAGCAAUAUUACGGCUG, in that order: -1.6 ± 0.14 and -0.126 ± 0.16.

On to CUGCAGCAAUAUUACGCACG, for which the “self-splicing fitness (ln)” value reads like this: (30 °C) -1.03 ± 0.047; (37 °C) -0.409 ± 0.069. In the case of UCACAGCAAUAUUACGAAUC, the “self-splicing fitness (ln)” value (37 °C) is -1.26 ± 0.17. Regarding CCCCAGCAAUAUUACGGCCG, the “self-splicing fitness (ln)” value is -3.62 ± 0.17 (30 °C) and -1.88 ± 0.16 (37 °C). For ACGCAGCAAUAUUACGAGUA, in that order: -3.72 ± 0.33 and -3.07 ± 0.27. On to GAUCAGCAAUAUUACGCUUG, for which the “self-splicing fitness (ln)” value reads like this: (30 °C) -1.02 ± 0.095; (37 °C) 0.188 ± 0.12.

UUAUAGCAAUAUUACGUUUU: the “self-splicing fitness (ln)” value reads like this: (30 °C) -3.61 ± 0.25; (37 °C) -2.64 ± 0.28. With CAUAAGCAAUAUUACGUGCA, the “self-splicing fitness (ln)” value was -3.45 ± 0.23 (30 °C) and -2.4 ± 0.18 (37 °C). For CGGAAGCAAUAUUACGUCUA, in that order: -0.422 ± 0.097 and -0.659 ± 0.076. For the sequence AUGUAGCAAUAUUACGCACU, the “self-splicing fitness (ln)” value by setting is: (30 °C) -0.786 ± 0.099; (37 °C) 0.708 ± 0.14. For CCUGAGCAAUAUUACGGUGU, in that order: -3.89 ± 0.24 and -2.32 ± 0.14. For CAGCAGCAAUAUUACGAAUA, in that order: -2.35 ± 0.13 and -1.9 ± 0.12. For ACUCAGCAAUAUUACGGCAA, in that order: -1.24 ± 0.094 and -0.795 ± 0.099. As for CUGAAGCAAUAUUACGUGGA, the “self-splicing fitness (ln)” value is, setting by setting: (30 °C) -4.08 ± 0.3; (37 °C) -2.63 ± 0.27.

For GGACAGCAAUAUUACGCAUG, the “self-splicing fitness (ln)” value was -0.84 ± 0.085 (30 °C) and -0.235 ± 0.11 (37 °C). For UCUAAGCAAUAUUACGUCGU, in that order: -1.19 ± 0.1 and -0.695 ± 0.12. For CGCGAGCAAUAUUACGUCUG, in that order: -0.412 ± 0.067 and -0.178 ± 0.073. Regarding UUUCAGCAAUAUUACGUACU, the “self-splicing fitness (ln)” value reads like this: (30 °C) -1.49 ± 0.15; (37 °C) -0.647 ± 0.17. For UAGGAGCAAUAUUACGUUAA, in that order: -1.4 ± 0.28 and -2.55 ± 0.39.

For UUUUAGCAAUAUUACGACUA, the “self-splicing fitness (ln)” value was -0.401 ± 0.18 (30 °C) and 0.109 ± 0.14 (37 °C). In the case of CGUGAGCAAUAUUACGAUUC, the “self-splicing fitness (ln)” value was -3.25 ± 0.23 (30 °C) and -2.58 ± 0.44 (37 °C). For UACUAGCAAUAUUACGGAAA, in that order: -2.64 ± 0.22 and -1.27 ± 0.18. With UUCGAGCAAUAUUACGCGUU, the “self-splicing fitness (ln)” value runs as follows: (30 °C) -1.87 ± 0.22; (37 °C) -1.88 ± 0.27. For CCACAGCAAUAUUACGACGC, in that order: -3.76 ± 0.33 and -2.08 ± 0.35. For GGCGAGCAAUAUUACGGCGG, in that order: -2 ± 0.39 and -1.28 ± 0.37. Take GGGUAGCAAUAUUACGUUUC: the “self-splicing fitness (ln)” value by setting is: (30 °C) -2.16 ± 0.12; (37 °C) -0.68 ± 0.15.

Take AAAUAGCAAUAUUACGGGUA: the “self-splicing fitness (ln)” value is -2.15 ± 0.12 (30 °C) and -1.41 ± 0.1 (37 °C). For GUCCAGCAAUAUUACGUCUG, in that order: -3.8 ± 0.47 and -2.47 ± 0.33. For GACGAGCAAUAUUACGACGU, in that order: -2.31 ± 0.23 and -1.13 ± 0.25.

In the case of GACGAGCAAUAUUACGGCUG, the “self-splicing fitness (ln)” value is, setting by setting: (30 °C) -1.82 ± 0.13; (37 °C) -1.13 ± 0.13. AUGGAGCAAUAUUACGGAAC: under “37 °C”, the “self-splicing fitness (ln)” value is -1.21 ± 0.42.

For AUUCAGCAAUAUUACGGGGU, the “self-splicing fitness (ln)” value was -3.78 ± 0.39 (30 °C) and -2.85 ± 0.26 (37 °C). For the sequence GGCUAGCAAUAUUACGAAAA, the “self-splicing fitness (ln)” value is, setting by setting: (30 °C) -1.06 ± 0.24; (37 °C) -1.33 ± 0.27. As for AAAAAGCAAUAUUACGACCA, the “self-splicing fitness (ln)” value was -0.0993 ± 0.079 (30 °C) and -0.734 ± 0.09 (37 °C).

Regarding AUAAAGCAAUAUUACGGAAC, the “self-splicing fitness (ln)” value (30 °C) is -2.45 ± 0.26 and the “self-splicing fitness (ln)” value (37 °C) is -0.934 ± 0.19. Regarding ACUGAGCAAUAUUACGGGAU, the “self-splicing fitness (ln)” value (30 °C) is -3.03 ± 0.17 and the “self-splicing fitness (ln)” value (37 °C) was -2.18 ± 0.22. As to CAUGAGCAAUAUUACGAGGU, the “self-splicing fitness (ln)” value is -3.26 ± 0.33 (30 °C) and -3.11 ± 0.4 (37 °C). Take UCGAAGCAAUAUUACGCAAG: the “self-splicing fitness (ln)” value (30 °C) was -2.17 ± 0.12 and the “self-splicing fitness (ln)” value (37 °C) was -1.6 ± 0.13. For GUAAAGCAAUAUUACGAAAA, the “self-splicing fitness (ln)” value was -1.52 ± 0.15 (30 °C) and 0.0796 ± 0.28 (37 °C). For AGUUAGCAAUAUUACGCUAA, in that order: -3.11 ± 0.43 and -2.29 ± 0.41. Consider GCCGAGCAAUAUUACGUGCC, for which the “self-splicing fitness (ln)” value runs as follows: (30 °C) -3.35 ± 0.15; (37 °C) -2.52 ± 0.2. For AAACAGCAAUAUUACGUCCG, in that order: -1.89 ± 0.082 and -0.645 ± 0.1. Take CAGAAGCAAUAUUACGACUC: the “self-splicing fitness (ln)” value reads like this: (30 °C) -0.803 ± 0.069; (37 °C) -0.342 ± 0.095. For GCCGAGCAAUAUUACGUCAU, in that order: -3.5 ± 0.25 and -1.31 ± 0.17. Regarding GGAGAGCAAUAUUACGACCU, the “self-splicing fitness (ln)” value (30 °C) is -1.9 ± 0.24 and the “self-splicing fitness (ln)” value (37 °C) is -0.666 ± 0.26. As to GUGCAGCAAUAUUACGGUGG, the “self-splicing fitness (ln)” value is -1.63 ± 0.11 (30 °C) and -1.16 ± 0.13 (37 °C).

For the sequence UGAUAGCAAUAUUACGCGAG, the “self-splicing fitness (ln)” value by setting is: (30 °C) -1.66 ± 0.17; (37 °C) -0.803 ± 0.13. Regarding CAUGAGCAAUAUUACGCGAC, the “self-splicing fitness (ln)” value (37 °C) is -2.84 ± 0.44. Consider UUUCAGCAAUAUUACGGUGU, for which the “self-splicing fitness (ln)” value is, setting by setting: (30 °C) -2.91 ± 0.13; (37 °C) -2.15 ± 0.18. For CUCAAGCAAUAUUACGGGGG, in that order: -4.01 ± 0.23 and -2.88 ± 0.2.

Regarding GUAGAGCAAUAUUACGCUCG, the “self-splicing fitness (ln)” value (30 °C) was -1.59 ± 0.13 and the “self-splicing fitness (ln)” value (37 °C) was -0.12 ± 0.16. Consider AAUAAGCAAUAUUACGCUAU, for which the “self-splicing fitness (ln)” value reads like this: (30 °C) -2.74 ± 0.16; (37 °C) -2.24 ± 0.18. For AGCUAGCAAUAUUACGAUAG, in that order: -3.51 ± 0.2 and -2.84 ± 0.23.
